How the values were obtained:
[1] = target: soluble HCV E2 truncated at amino acid 661 (sE2661), His-tagged (Hepatitis C virus (isolate not stated)); test: SPR (BIAcore), sE2
[2] = target: soluble HCV E2 truncated at amino acid 661 (sE2661), His-tagged (Hepatitis C virus (isolate not stated)); test: SPR (BIAcore A100), antibody captured on anti-Fc chip, sE2 injected 1.56-50 nM, 1:1 Langmuir fit

Kd [1] [nM] | Kd [2] [nM] | Substance
50 |  | AP33 Fab
 | 5 to 8 | AP33 antibody (as used in Example 2)

From US20120027722A1
